Assay results from patent US20220306733A1.
Numbering of substitutions follows the chain as printed.

B1: anti-TIGIT antibody clone 26486 (antibody, V domains shown)
VH: QVQLQESGPGLVKPSETLSLTCAVSGYSISSGYYWAWIRQPPGKGLEWIGSIYHSGSTYYNPSLKSRVTISVDTSKNQFSLKLSSVTAADTAVYYCAIEGANYYDFGYVAFDIWGQGTMVTVSS
VL: EIVMTQSPATLSVSPGERATLSCRASQSVSSNLAWYQQKPGQAPRLLIYGASTRATGIPARFSGSGSGTEFTLTISSLQSEDFAVYYCQQSPPWPRTFGGGTKVEIK
B2: anti-TIGIT antibody clone 29494 (antibody, V domains shown)
VH: QVQLQESGPGLVKPSETLSLTCTVSGGSISSGSYYLAWIRQPPGKGLEWIGSIFRSGSTYYNPSLESRVTISVDTSKNQFSLKLSSVTAADTAVYYCAIEGANFKDFGYVAFDIWGQGTMVTVSS
VL: B1 VL
B3: anti-TIGIT antibody clone 29499 (antibody, V domains shown)
VH: B2 VH with V2L, G32S, S33R, L36W, F54G, R55T, E66K, A90T, K105R
VL: B1 VL
B4: anti-TIGIT antibody clone 29513 (antibody, V domains shown)
VH: QVQLVQSGAEVKKPGSSVKVSCKASGGTFQNYAISWVRQAPGQGLEWMGVIVPIFGTANYAQKFQGRVTVTADESTSTAYMELSSLRSEDTAVYYCARLHLGQKAYYGMDVWGQGTTVTVSS
VL: DIQMTQSPSSLSASVGDRVTITCRASQSISSYLNWYQQKPGKAPKLLIYAASSLQSGVPSRFSGSGSGTDFTLTISSLQPEDFATYYCQQRYVFPPTFGGGTKVEIK
B5: anti-TIGIT antibody clone 26493 (antibody, V domains shown)
VH: EVQLVESGGGLVQPGRSLRLSCAASGFTFGDYAMHWVRQAPGKGLEWVSGITWNSGSIGYADSVKGRFTISRDNAKNSLYLQMNSLRAEDTALYYCAKPVPKSRGLDVWGQGTMVTVSS
VL: DIQLTQSPSSVSASVGDRVTITCRASQGISSWLAWYQQKPGKAPKLLIYGASSLQSGVPSRFSGSGSGTDFTLTISSLQPEDFATYYCQQAFYLPWTFGGGTKVEIK
B6: anti-TIGIT antibody clone 29520 (antibody, V domains shown)
VH: B5 VH with E1Q, G30R, S57L, K102R, S103L
VL: B5 VL
B7: anti-TIGIT antibody clone 29523 (antibody, V domains shown)
VH: EVQLVESGGGVVQPGRSLRLSCAASGFTFGSYYMHWVRQAPGKGLEWVAVIWPDGSNKLYADSVKGRFTISRDNSKNTLYLQMNSLRAEDTALYYCAKPVPKSRALDVWGQGTMVTVSS
VL: B5 VL
B8: anti-TIGIT antibody clone 29527 (antibody, V domains shown)
VH: B7 VH with E1Q, G30S, Y32S, W52G, P53A, L59Y, K65E, K102R, S103R, A105G
VL: B5 VL
B9: anti-TIGIT antibody clone 31288 (antibody, V domains shown)
VH: B2 VH with V2L, M120T
VL: B1 VL
B10: anti-TIGIT antibody clone 32931 (antibody, V domains shown)
VH: B2 VH with V2L, M120T
VL: B1 VL with Q27K, G50F, S91T, P92S

Target: Polyspecificity reagent (PSR): biotinylated soluble membrane proteins of CHO cells
Assay: flow cytometry, biotinylated PSR on IgG-presenting yeast

Row | Binder | Polyspecificity Reagent (PSR) Score (0-1) [score 0-1]
1 | B1 | 0
2 | B2 | 0
3 | B3 | 0.1
4 | B4 | 0.01
5 | B5 | 0
6 | B6 | 0.32
7 | B7 | 0.12
8 | B8 | 0.12
9 | B9 | 0
10 | B10 | 0
